Results from PMC8458463, “Liquid condensation of reprogramming factor KLF4 with DNA provides a mechanism for chromatin organization”.

Legend:
Settings in all cases: protein: recombinant; tags: Nano-His6-TEV tag cleaved
KLF4 DBD [1] = target: T1, KLF4 DBD (human, UniProt O43474 418-513); assay: X-ray crystallography; Zn2+; 2.14 A, 1:1 complex; EMSA: 20 mM Tris pH 8, 50 mM NaCl, 5% glycerol, 0.01 mg/ml BSA, 0.1 mM DTT, 0.05 mM TCEP; gel run at 4 C; protein refolded with 3.3 eq ZnSO4
KLF4 DBD [2] = target: T1, KLF4 DBD; assay: EMSA; Zn2+; DBD up to 15 uM; EMSA: 20 mM Tris pH 8, 50 mM NaCl, 5% glycerol, 0.01 mg/ml BSA, 0.1 mM DTT, 0.05 mM TCEP; gel run at 4 C; protein refolded with 3.3 eq ZnSO4
KLF4 DBD [3] = target: T1, KLF4 DBD; assay: EMSA; Zn2+; 1 uM DNA, 0-6 uM DBD; 1:1, 2:1 and 3:1 complexes, 3:1 needs 6 equivalents; EMSA: 20 mM Tris pH 8, 50 mM NaCl, 5% glycerol, 0.01 mg/ml BSA, 0.1 mM DTT, 0.05 mM TCEP; gel run at 4 C; protein refolded with 3.3 eq ZnSO4
KLF4 DBD [4] = target: T1, KLF4 DBD; assay: EMSA; Zn2+; 1 uM DNA, 0-6 uM DBD; 3:1 complex at 3 equivalents, tighter than NANK; EMSA: 20 mM Tris pH 8, 50 mM NaCl, 5% glycerol, 0.01 mg/ml BSA, 0.1 mM DTT, 0.05 mM TCEP; gel run at 4 C; protein refolded with 3.3 eq ZnSO4

T1 sequence (O43474 418-513): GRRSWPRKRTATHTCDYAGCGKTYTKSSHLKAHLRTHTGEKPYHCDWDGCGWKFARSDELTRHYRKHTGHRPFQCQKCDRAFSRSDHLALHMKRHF

B1: NKA (dsDNA)
DNA 1: AGGGGGTGTGCC
DNA 2: GGCACACCCCCT
- binding result (KLF4 DBD [1]): binds

B2: NKC (dsDNA)
DNA 1: GAGGGGTGGGTC
DNA 2: GACCCACCCCTC
- binding result (KLF4 DBD [2]): binds

B3: NKB (dsDNA)
DNA 1: TGCCCGCCAGGA
DNA 2: TCCTGGCGGGCA
- binding result (KLF4 DBD [2]): binds

B4: NANK (dsDNA)
DNA 1: AGGGGGTGTGCCCGCCAGGAGGGGTGGGTC
DNA 2: GACCCACCCCTCCTGGCGGGCACACCCCCT
- binding result (KLF4 DBD [3]): binds

B5: NANKm (dsDNA)
DNA 1: AGGGGGTGTGCCCGCCAGGAGGGGTGGGTC
DNA 2: GACCCACCCCTCCTGGCGGGCACACCCCCT
modifications: 5-methyl-dC at position 13 of strand 1 (CpG in KLFB); complement strand methylation not stated
- binding result (KLF4 DBD [4]): binds
